Reference: patent US10358467B2, “Therapeutic targets for cancer progression” (The Regents of the University of California, priority 2015, dated 2019)

What was measured:
Rac1 = Rac1 activity pulldown assay with GST-PBD in HeLa cells; assay type: cell-based; conditions: 10 μM, 6 h, DAPLE-depleted HeLa cells transfected with myc-DAPLE WT
Experimental: Rac1 activity in HeLa cells lines was monitored using GST-tagged PAK1-binding domain (PBD; pGEX-PBD) as described previously (Benard & Bokoch, 2002). Briefly, Escherichia coli strain BL21 bacteria transformed with pGEX-PBD were grown at 37° C. and GST-PBD expression was induced at OD600 with 1 mM IPTG for 3 h at 37° C. with shaking. Bacterial lysates were prepared as described above in protein purification section, cleared of debris by centrifugation and subsequently aliquots of lysates were stored at −80° C. until use. Aliquots of bacterial lysates were thawed, cleared of precipitated proteins by centrifugation at 14,000×g for 20 min, and the cleared supernatant was subsequently incubated with glutathione beads overnight at 4° C. with constant tumbling to prepare purified bead-bound GST-PBD freshly for each assay.
To analyze the role of DAPLE in regulation of Rac1 activity HeLa cells were used. For assays done on cells at steady-state, cells were maintained overnight in a media containing 2% or 0.2% FBS prior to lysis. […]

Akt = Akt phosphorylation (pAkt S473) immunoblot in HeLa cells; assay type: cell-based; conditions: 10 μM, 6 h, DAPLE-depleted HeLa cells transfected with myc-DAPLE WT
Experimental: For immunoblotting, protein samples were separated by SDS-PAGE and transferred to PVDF membranes (Millipore). Membranes were blocked with PBS supplemented with 5% nonfat milk (or with 5% BSA when probing for phosphorylated proteins) before incubation with primary antibodies. Infrared imaging with two-color detection and band densitometry quantifications were performed using a Li-Cor Odyssey imaging system exactly as done previously (Garcia-Marcos et al, 2011a; Garcia-Marcos et al, 2010; Garcia-Marcos et al, 2012; Garcia-Marcos et al, 2011b; Ghosh et al, 2010). All Odyssey images were processed using Image J software (NIH) and assembled into figure panels using Photoshop and Illustrator software (Adobe).

His-Gαi3 [1] = molecular target: T1, His-Gαi3 (Rattus norvegicus, UniProt P08753); assay: Steady-state GTPase assay; assay type: biochemical; conditions: in vitro assays
T1 construct: His; made in house; host or cells: E. coli BL21 (DE3)
Experimental: Under the experimental conditions of steady-state GTPase assays, GTP hydrolysis occurs as a two-step reaction, i.e., 1) GDP is released from the G protein and exchanged for GTP, and 2) the GTP loaded is hydrolyzed. Nucleotide exchange is the rate limiting step in this process because it is ˜50-100 times slower than GTP hydrolysis by Gαi subunits (Mukhopadhyay & Ross, 2002). Thus, the steady-state GTPase activity reflects the rate of nucleotide exchange, and was performed as described previously (Garcia-Marcos et al, 2010; Garcia-Marcos et al, 2012; Garcia-Marcos et al, 2011b). Briefly, His-Gαi3 (100 nM) was preincubated with different concentrations of His-DAPLE-CT (aa 1650-2028) for 15 min at 30° C. in assay buffer [20 mM Na-HEPES, pH 8, 100 mM NaCl, 1 mM EDTA, 2 mM MgCl2, 1 mM DTT, 0.05% (w:v) C12E10]. GTPase reactions were initiated at 30° C. by adding an equal volume of assay buffer containing 1 μM [γ-^32P]GTP (˜50 c.p.m/fmol). […] Samples were then centrifuged for 10 min at 10,000×g, and 500 μl of the resultant supernatant were scintillation counted to quantify released [^32P]Pi. For the time course experiments, data was expressed as raw c.p.m. For the dose-dependence curve experiments, the background [^32P]Pi detected at 15 min in the absence of G protein was subtracted from each reaction and data expressed as percentage of the Pi produced by His-Gαi3 in the absence of His-DAPLE-CT.

His-Gαi3 [2] = molecular target: T1, His-Gαi3; assay: GTPγS binding assay; assay type: biochemical; conditions: 0-2 μM, 15 min
Experimental: GTPγS binding was measured using a filter binding method as described previously (Garcia-Marcos et al, 2010; Garcia-Marcos et al, 2011b). His-Gαi3 (100 nM) was preincubated with different concentrations of His-DAPLE-CT (aa 1650-2028) for 15 min at 30° C. in assay buffer [20 mM Na-HEPES, pH 8, 100 mM NaCl, 1 mM EDTA, 25 mM MgCl2, 1 mM DTT, 0.05% (w:v) C12E10]. Reactions were initiated at 30° C. by adding an equal volume of assay buffer containing 1 μM [^35S] GTPγS (˜50 c.p.m/fmol). Duplicate aliquots (25 μl) were removed at different time points, and binding of radioactive nucleotide was stopped by addition of 3 ml, ice-cold wash buffer (20 mM Tris-HCl, pH 8.0, 100 mM NaCl, 25 mM MgCl2). The quenched reactions were rapidly passed through BA-85 nitrocellulose filters (GE Healthcare) and washed with 4 ml wash buffer. Filters were dried and subjected to liquid scintillation counting. To determine the specific nucleotide binding, the background [^35S]GTPγS detected in the absence of G protein was subtracted from each reaction and data expressed as percentage of the [^35S] GTPγS bound by His-Gαi3 in the absence of His-DAPLE-CT.

[3] = molecular target: T2, GST-Gαi3·Gβγ preformed complexes (Rattus norvegicus, UniProt P08753); assay: Gβγ displacement assay; assay type: binding; conditions: 0.05-1 μM WT or 1 μM F1675A
T2 construct: made in house; host or cells: E. coli BL21 (DE3) for GST-Gαi3; Gβγ endogenous from HEK293T lysate
Experimental: This assay was performed as described previously (Garcia-Marcos et al, 2009). Briefly, GST alone or GST-Gαi3 proteins immobilized on glutathione-agarose beads were incubated overnight at 4° C. with HEK293T cell lysates in binding buffer [50 mM Tris-HCl, pH 7.4, 100 mM NaCl, 0.4% (v:v) NP-40, 10 mM MgCl2, 5 mM EDTA, 2 mM DTT, protease inhibitor cocktail supplemented with 30 μM GDP]. Unbound Gβγ-subunits were washed twice with the same buffer and proteins bound to the glutathione-agarose beads divided into equal aliquots containing ˜5 μg (˜0.4 μM) GST-fusion proteins. Aliquots were incubated with increasing concentrations (0.05-1 μM) of purified His-DAPLE-CT (1650-2028) wild-type or 1 μM His-DAPLE-CT F1675A in binding buffer supplemented with GDP (˜200 μl) for 5 h at 4° C. Glutathione-agarose beads were washed and bound proteins eluted by boiling in Laemmli sample buffer and separated by SDS-PAGE.

Gαi1 = molecular target: T3, Gαi1 (Rattus norvegicus, UniProt P10824); assay: GST pulldown of His-DAPLE-CT with GST-Gαi1; assay type: binding
T3 construct: made in house; host or cells: E. coli BL21 (DE3)
T3 sequence (P10824 whole entry): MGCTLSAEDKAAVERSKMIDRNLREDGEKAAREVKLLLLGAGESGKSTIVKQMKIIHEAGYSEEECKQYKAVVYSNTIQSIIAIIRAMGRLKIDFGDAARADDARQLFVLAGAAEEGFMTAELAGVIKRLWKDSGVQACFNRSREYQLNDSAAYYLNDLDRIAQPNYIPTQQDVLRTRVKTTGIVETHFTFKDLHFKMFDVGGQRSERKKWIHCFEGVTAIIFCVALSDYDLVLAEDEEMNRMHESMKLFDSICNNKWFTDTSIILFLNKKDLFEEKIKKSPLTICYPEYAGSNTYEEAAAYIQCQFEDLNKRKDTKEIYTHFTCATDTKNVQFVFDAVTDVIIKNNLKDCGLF

Gαi2 = molecular target: T4, Gαi2 (Rattus norvegicus, UniProt P04897); assay: GST pulldown of His-DAPLE-CT with GST-Gαi2; assay type: binding; conditions: compared to Gαi1 and Gαi3
T4 construct: made in house; host or cells: E. coli BL21 (DE3)
T4 sequence (P04897 whole entry): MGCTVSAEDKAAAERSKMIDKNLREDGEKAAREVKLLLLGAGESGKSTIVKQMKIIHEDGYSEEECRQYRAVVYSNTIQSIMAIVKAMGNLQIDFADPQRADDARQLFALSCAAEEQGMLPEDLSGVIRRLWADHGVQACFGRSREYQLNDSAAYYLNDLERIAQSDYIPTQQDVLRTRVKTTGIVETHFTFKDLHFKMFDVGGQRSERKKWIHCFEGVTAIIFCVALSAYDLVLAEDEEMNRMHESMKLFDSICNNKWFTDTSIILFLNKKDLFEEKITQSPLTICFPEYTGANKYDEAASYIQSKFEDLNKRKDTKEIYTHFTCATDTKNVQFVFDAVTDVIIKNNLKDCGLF

Gαi3 = molecular target: T5, Gαi3 (Rattus norvegicus, UniProt P08753); assay: GST pulldown of His-DAPLE-CT with GST-Gαi3; assay type: binding
T5 construct: made in house; host or cells: E. coli BL21 (DE3)
Experimental: Purified GST-Gαi3 or GST alone (5 μg) were immobilized on glutathione-Sepharose beads and incubated with binding buffer [50 mM Tris-HCl (pH 7.4), 100 mM NaCl, 0.4% (v:v) Nonidet P-40, 10 mM MgCl2, 5 mM EDTA, 30 μM GDP, 2 mM DTT, protease inhibitor mixture] for 90 min at room temperature as described before (Garcia-Marcos et al, 2011a; Ghosh et al, 2010; Ghosh et al, 2008; Lin et al, 2011). Lysates (˜250 μg) of Cos7 cells expressing appropriate myc-DAPLE constructs or purified His-DAPLE-CT (aa 1650-2028) protein (3 μg) were added to each tube, and binding reactions were carried out for 4 h at 4° C. with constant tumbling in binding buffer [50 mM Tris-HCl (pH 7.4), 100 mM NaCl, 0.4% (v:v) Nonidet P-40, 10 mM MgCl2, 5 mM EDTA, 30 μM GDP, 2 mM DTT]. Beads were washed (4×) with 1 mL of wash buffer [4.3 mM Na2HPO4, 1.4 mM KH2PO4 (pH 7.4), 137 mM NaCl, 2.7 mM KCl, 0.1% (v:v) Tween 20, 10 mM MgCl2, 5 mM EDTA, 30 μM GDP, 2 mM DTT] and boiled in Laemmli's sample buffer. In some experiments the ‘active’ conformation of the G protein was stabilized by replacing GDP in the binding and wash buffers with 30 μM GTPγS or a mixture of 30 μM GDP/30 μM AlCl3/10 mM NaF. Immunoblot quantification was performed by infrared imaging following the manufacturer's protocols using an Odyssey imaging system (Li-Cor Biosciences).

Gαo = molecular target: T6, Gαo (Rattus norvegicus, UniProt P59215); assay: GST pulldown of His-DAPLE-CT with GST-Gαo; assay type: binding
T6 construct: made in house; host or cells: E. coli BL21 (DE3)
T6 sequence (P59215 whole entry): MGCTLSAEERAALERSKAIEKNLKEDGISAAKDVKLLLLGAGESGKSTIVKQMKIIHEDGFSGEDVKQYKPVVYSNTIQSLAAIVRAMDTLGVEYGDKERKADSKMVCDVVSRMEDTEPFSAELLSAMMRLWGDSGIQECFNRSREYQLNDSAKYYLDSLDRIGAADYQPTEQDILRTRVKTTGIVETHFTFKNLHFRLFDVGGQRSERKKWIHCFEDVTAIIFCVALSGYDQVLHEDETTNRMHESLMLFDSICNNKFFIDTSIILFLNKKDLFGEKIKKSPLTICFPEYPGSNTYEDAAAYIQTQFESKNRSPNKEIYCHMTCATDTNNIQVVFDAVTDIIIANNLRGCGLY

GST-FZD7R-CT = molecular target: T7, GST-FZD7R-CT (Homo sapiens, UniProt O75084); assay: GST-FZD7-CT pulldown of His-Gαi3; assay type: binding; conditions: His-Gαi3 preloaded with GDP, in the presence of DAPLE-CT
T7 construct: the GST-tagged cytoplasmic tail of FZD7R; made in house; host or cells: bacteria (E. coli BL21 (DE3)); plasmid a gift of R. Yao
Experimental: GST-FZD7-CT and GST-PBD constructs were immobilized on glutathione-Sepharose beads directly from bacterial lysates by overnight incubation at 4° C. with constant tumbling. Next morning, GST-FZD7-CT immobilized on glutathione beads were washed and subsequently incubated with His-tagged DAPLE-CT or Gαi3 proteins at 4° C. with constant tumbling. Washes and immunoblotting were performed as previously.

O=C1OC2(c3ccccc31)c1ccc(O)c(O)c1Oc1c2ccc(O)c1O [Gallein]
Rac1 activity (Rac1): effectively inhibited
Akt activity (Akt): effectively inhibited

B1: His-DAPLE-CT: purified His-tagged DAPLE C-terminus (aa 1650-2028, containing the GBA motif) (protein, listed as Homo sapiens)
chain: GTAPPYVGVRPCSASPSSEMVTLEEFLEESNRSSPTHDTPSCRDDLLSDYFRKASDPPAIGGQPGPPAKKEGAKMPTNFVAPTVKMAAPTSEGRPLKPGQYVKPNFRLTEAEAPPSVAPRQAQPPQSLSLGRPRQAPVPPASHAPASRSASLSRAFSLASADLLRASGPEACKQESPQKLGAPEALGGRETGSHTLQSPAPPSSHSLARERTPLVGKAGSSCQGPGPRSRPLDTRRFSLAPPKEERLAPLHQSATAPAIATAGAGAAAAGSGSNSQLLHFSPAAAPAARTKPKAPPRSGEVATITPVRAGLSLSEGDGVPGQGCSEGLPAKSPGRSPDLAPHLGRALEDCSRGSVSKSSPASPEPGGDPQTVWYEYGCV
modifications: His tag
GEF activity, activation of nucleotide exchange (His-Gαi3 [1]): 2.5-3 fold
initial rate of nucleotide (GTPγS) binding by His-Gαi3 (His-Gαi3 [2]): increased
displacement of Gβγ from pre-assembled complex with GST-Gαi3 [3]: displaced
binding to Gαi1 (Gαi1): interacts
binding to Gαi2 (Gαi2): partially reduced
binding to Gαi3 (Gαi3): interacts
binding to Gαo (Gαo): not with Gαo
increase of Gαi3 binding to GST-FZD7R-CT (GST-FZD7R-CT): ~5 fold
